Experimental findings from paper PMC11573500 are described below.

“And” between values parts separate entries of the source, which are not always exact repeats. Equal entries are not always repeated.

In test [1] the target is dephosphorylated wild-type human CFTR (human) (UniProt P13569). Kind of test: cryo-EM structure; 30 uM dephosphorylated wild-type CFTR in digitonin, 250 uM bPKA-C, 2 mM AMP-PNP/Mg2+; 200 mM NaCl, 20 mM HEPES pH 7.4, 1 mM DTT.
For test [2], the target named is CFTR E51A expressed in Xenopus laevis oocytes (human) (UniProt P13569).
The target of test [3] is CFTR D58A expressed in Xenopus laevis oocytes (human) (UniProt P13569).
Test [4] concerns the target CFTR D47A expressed in Xenopus laevis oocytes (human) (UniProt P13569).
For test [5], the target named is dephosphorylated human CFTR E1371Q (human) (UniProt P13569). In words: cryo-EM structure; 30 uM dephosphorylated E1371Q CFTR in digitonin, 250 uM bovine PKA-C, 1 mM P-ATP/Mg2+ and 1 mM AMP-PNP/Mg2+; 200 mM NaCl, 20 mM HEPES pH 7.4, 1 mM DTT.
Test [6] has as its target phosphorylated human CFTR E1371Q (human) (UniProt P13569). Kind of test: cryo-EM structure; phosphorylated E1371Q CFTR (~5 mg/mL) in digitonin with PKA-C (~10 mg/mL), 3 mM ATP/Mg2+; 200 mM NaCl, 20 mM HEPES pH 7.4, 1 mM DTT.
Test [7] addresses WT CFTR expressed in Xenopus laevis oocytes (human) (UniProt P13569).

For “protein kinase A catalytic subunit purified from bovine heart (from UniProt P00517 1-351) (enzyme)”, the stoichiometry N (PKA-C per CFTR) is 1 and 2 in test [1]; 1 in test [5]; 1 in test [6]. Further, the half-time (t1/2) of macroscopic current activation by 300 nM bPKA-C in 2 mM ATP, relative to WT CFTR in test [2], in test [3] and in test [4] was 2 fold in each case.

Turning to “recombinant bovine PKA-C, wild type (from UniProt P00517 1-351) (enzyme)”, the half-time (t1/2) of current activation by 300 nM rPKA-C in 2 mM ATP, relative to 300 nM bPKA-C on WT CFTR in test [7] was found to be 6 fold.
